The test deals with CD19-CD22 CAR(CD19-CD22双靶点CAR-T细胞表面表达的CD19-CD22 scFv). The test is described as follows: flow cytometry on CD19-CD22 CAR-T cells, positive control tube.

“Alexa Fluor®647荧光标记的抗鼠F(ab')2抗体(Jackson ImmunoResearch Laboratories，货号#115-605-072) (antibody)” gave a CAR阳性百分率 of 31.6%.

For the origin of these results see patent publication CN116640216A.
